In paper PMC6245143, “Small-animal SPECT/CT imaging of cancer xenografts and pulmonary fibrosis using a ^99mTc-labeled integrin αvβ6-targeting cyclic peptide with improved in vivo stability” (Biophysics Reports, 2018):
Like-named read-outs stand apart in the source and are kept apart here. One block for each molecule: values may come before it. Where a SMILES comes first, the peptide text is derived from it. Bridges are numbered along the chain shown (N, C = ends). Where no end group is shown, it is not given here. The star is where a group is joined. HYNIC = NNc1ccc(C(=O)*)cn1

Tests used:
[1] = mouse; cited from earlier work
Text: Due to the critical role of integrin αvβ6 in tumorigenesis and fibrogenesis, it has emerged as an appealing target for diagnostic imaging, prognosis evaluation, and therapeutic responses monitoring (Agarwal [2014]; Cantor et al. [2015]; Saini et al. [2015]; Yang et al. [2015]). Therefore, noninvasive and quantitative imaging of integrin αvβ6 expression by molecular imaging techniques would be of great potential for better management of these diseases. Previous studies have focused on the development of positron emission tomography (PET) and single-photon emission computed tomography (SPECT) ra ...

[2] = Biodistribution in BxPC-3 tumor-bearing nude mice; details: female, BALB/c nude, in vivo, iv, total radioactivity; for tissue uptake at 1 h: 1 h after injection
Experimental: (§1) All animal experiments were performed in accordance with the guidelines of Peking University Animal Care and Use Committee. To establish the BxPC-3 subcutaneous tumor model, BxPC-3 cells (1 × 10^7 in 100 μl of PBS) were inoculated subcutaneously into the right front flanks of female BALB/c nude mice. The animals were used for in vivo studies when the tumor size reached 200–300 mm^3 (3–4 weeks after inoculation). For the pulmonary fibrosis mouse model, BLM (1.5 units/kg, 50 μl in PBS) or PBS (50 μl; as a vehicle control) was administered once into the C57/BL6 mice by intratracheal injection. On day 21 (based on pilot studies), the mice with well-established pulmonary fibrosis were used for SPECT/CT imaging.
Biodistribution studies were performed using female BALB/c nude mice bearing BxPC-3 xenografts. Mice received an injection via the tail vein of 370 kBq (10 μCi) of ^99mTc–HYNIC–cHK to evaluate the distribution of the radiotracer. The blocking experiments were also performed by coinjection of ^99mTc–HYNIC–cHK with a saturating dose of the HK peptide (500 μg per mouse). At 0.5, 1, and 2 h after injection, the animals were sacrificed, and the tumors and the organs/tissues of interest were dissected and wet-weighed, and the radioactivity in the tissue was measured using a γ-counter. The results are presented as percentages of injected dose per gram of tissue (%ID/g). Values are expressed as mean ± SD (n = 4 per group).

[3] = 37 °C, 0, 0.5, 1, 2 and 4 h, radio-HPLC
Experimental: The in vitro solution stability of ^99mTc–HYNIC–cHK in fetal bovine serum (FBS) or L-cysteine was monitored by radio-HPLC.
^99mTc–HYNIC–cHK was incubated in FBS or L-cysteine (1.0 mg/mL) for 0, 0.5, 1, 2, and 4 h at 37 °C to test the in vitro solution stability. After passing through a 0.22-μm Millipore filter, the samples were analyzed by radio-HPLC.

[4] = system: bleomycin-induced fibrotic lungs; test: SPECT/CT imaging of bleomycin-induced pulmonary fibrosis; assay type: in vivo; details: C57/BL6 mice, 0.5 h after injection
Experimental: as §1
(§2) Small-animal SPECT/CT scans of subcutaneous BxPC-3 tumor and pulmonary fibrosis mouse models were performed using a SPECT/CT system (NanoScan; Mediso, Budapest, Hungary). Each BxPC-3-bearing mouse was injected via tail vein with 37 MBq (1 mCi) of ^99mTc–HYNIC–cHK. At 0.5 h and 1 h after injection, the mice were anesthetized by inhalation of 2% isoflurane and imaged using the Nano-SPECT/CT camera, The SPECT and CT fusion images were obtained using the automatic fusion software (InterView Fusion; Mediso Medical Imaging Systems, Budapest, Hungary).
Each BLM- or PBS-treated mouse was administered with 37 MBq of ^99mTc–HYNIC–cHK via tail vein. […]

[5] = for degree of metabolism in blood: mouse blood, 1 mCi i.v.
Experimental: We performed the metabolism studies of ^99mTc–HYNIC–cHK using normal BALB/c mice. We analyzed the samples from both blood and urine to determine whether the radiotracer retains its chemical integrity at 0.5 h and 1 h postinjection.
The metabolic stability of ^99mTc–HYNIC–cHK was evaluated in female BALB/c normal mice. Each mouse was administered with the radiotracer at a dose of 1 mCi in 100 μl saline via intravenous injection. At 0.5 h and 1 h postinjection, the blood and urine samples were collected. The samples were centrifuged at 8000 r/min for 15 min. The supernatant was collected, filtered through a 0.22-μm Millipore filter, and then analyzed by radio-HPLC.

[6] = target: T1, integrin αvβ6-positive BxPC-3 cells (Homo sapiens, UniProt P06756+P18564); test: Binding of ^99mTc–HYNIC–cHK to BxPC-3 cells, without or with cold peptide blocking; assay type: cell-based; details: 4 °C, 4 h
T1 construct: host or cells: BxPC-3 human pancreatic cancer cells
T1 sequence (P06756 31-889 limits assumed): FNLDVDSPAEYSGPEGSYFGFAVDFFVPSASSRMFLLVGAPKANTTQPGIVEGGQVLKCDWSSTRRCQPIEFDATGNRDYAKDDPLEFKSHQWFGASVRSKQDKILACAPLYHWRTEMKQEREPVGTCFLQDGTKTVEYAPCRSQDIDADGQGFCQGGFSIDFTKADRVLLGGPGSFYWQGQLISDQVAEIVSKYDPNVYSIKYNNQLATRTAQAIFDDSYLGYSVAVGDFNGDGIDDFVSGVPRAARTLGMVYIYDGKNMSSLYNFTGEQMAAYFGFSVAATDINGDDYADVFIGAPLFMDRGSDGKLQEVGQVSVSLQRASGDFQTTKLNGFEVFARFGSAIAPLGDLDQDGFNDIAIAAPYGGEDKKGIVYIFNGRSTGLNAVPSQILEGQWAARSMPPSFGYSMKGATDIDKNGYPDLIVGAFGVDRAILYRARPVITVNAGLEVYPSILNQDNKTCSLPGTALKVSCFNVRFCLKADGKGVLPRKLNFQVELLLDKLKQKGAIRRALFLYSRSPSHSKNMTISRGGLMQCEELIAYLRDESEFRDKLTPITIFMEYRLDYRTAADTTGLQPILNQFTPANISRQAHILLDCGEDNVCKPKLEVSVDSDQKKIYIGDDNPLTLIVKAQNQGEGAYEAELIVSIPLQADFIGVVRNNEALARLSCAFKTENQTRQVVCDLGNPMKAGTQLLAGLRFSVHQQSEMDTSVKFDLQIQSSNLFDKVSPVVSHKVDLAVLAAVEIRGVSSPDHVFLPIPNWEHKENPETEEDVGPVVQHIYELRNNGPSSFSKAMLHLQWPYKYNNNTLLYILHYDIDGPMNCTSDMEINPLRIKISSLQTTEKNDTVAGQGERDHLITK
T1 sequence (P06756 891-1048 partner limits assumed): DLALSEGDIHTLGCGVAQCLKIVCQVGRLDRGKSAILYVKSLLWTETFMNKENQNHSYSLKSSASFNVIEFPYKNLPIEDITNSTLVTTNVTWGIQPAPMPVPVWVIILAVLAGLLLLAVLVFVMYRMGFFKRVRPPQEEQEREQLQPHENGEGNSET
T1 sequence (P18564 22-788): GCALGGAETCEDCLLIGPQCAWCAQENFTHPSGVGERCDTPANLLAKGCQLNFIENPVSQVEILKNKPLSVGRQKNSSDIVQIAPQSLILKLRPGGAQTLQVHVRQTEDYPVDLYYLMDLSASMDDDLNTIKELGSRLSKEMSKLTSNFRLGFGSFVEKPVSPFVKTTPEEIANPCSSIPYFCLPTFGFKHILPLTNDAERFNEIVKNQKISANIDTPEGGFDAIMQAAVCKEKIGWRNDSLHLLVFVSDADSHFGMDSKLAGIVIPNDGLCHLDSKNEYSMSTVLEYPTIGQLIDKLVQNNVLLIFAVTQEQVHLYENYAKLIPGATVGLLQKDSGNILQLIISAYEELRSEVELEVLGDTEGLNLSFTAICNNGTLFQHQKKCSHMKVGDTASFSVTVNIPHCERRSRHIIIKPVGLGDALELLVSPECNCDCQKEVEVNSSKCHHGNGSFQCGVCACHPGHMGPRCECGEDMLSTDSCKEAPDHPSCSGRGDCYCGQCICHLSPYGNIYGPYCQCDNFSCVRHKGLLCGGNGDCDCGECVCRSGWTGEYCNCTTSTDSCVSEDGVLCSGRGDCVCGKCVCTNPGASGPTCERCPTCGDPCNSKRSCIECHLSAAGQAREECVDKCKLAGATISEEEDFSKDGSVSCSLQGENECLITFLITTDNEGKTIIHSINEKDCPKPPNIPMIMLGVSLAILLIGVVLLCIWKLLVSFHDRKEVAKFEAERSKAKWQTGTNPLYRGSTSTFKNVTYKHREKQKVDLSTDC
Experimental: The binding specificity of ^99mTc–HYNIC–cHK to integrin αvβ6 was evaluated in integrin αvβ6-positive BxPC-3 cells.
In vitro integrin αvβ6 binding specificity of ^99mTc–HYNIC–cHK was tested using the integrin αvβ6-positive BxPC-3 cells. Briefly, cells were seeded into 12-well plates and incubated overnight at 37 °C to allow adherence. After brief washing with PBS, tumor cells were incubated with 3.7 kBq ^99mTc–HYNIC–cHK with or without an excess dose of cold cHK or HK peptide at 4 °C for 4 h. Tumor cells were then washed with chilled PBS and harvested by trypsinization with 0.05% trypsin. The cell suspensions were collected and measured in a γ-counter (Wallac 1470-002, Perkin-Elmer, Finland). The cell uptake was expressed as the percent added dose (%AD). Experiments were performed twice with triplicate samples.

BxPC-3 tumors = test: Small-animal SPECT/CT imaging of BxPC-3 cancer xenografts; assay type: in vivo, BALB/c nude mice; details: BxPC-3 tumor-bearing mice, 37 MBq i.v., blocking dose of cold HK peptide, P < 0.001
Experimental: as §1, §2

[7] = target: T2, integrin αvβ6 on BxPC-3 cells (Homo sapiens, UniProt P06756+P18564); test: Displacement cell-binding assay with ^125I–HYK as radioligand
T2 construct: Experiments were performed on high integrin αvβ6-expressing BxPC-3 cells; host or cells: BxPC-3 human pancreatic cancer cells
T2 sequence (P06756 31-889 limits assumed): as the sequence (P06756 31-889 limits assumed) above
T2 sequence (P06756 891-1048 partner limits assumed): as the sequence (P06756 891-1048 partner limits assumed) above
T2 sequence (P18564 22-788): as the sequence (P18564 22-788) above
Experimental: In vitro integrin αvβ6 binding affinities of cHK and HK were compared via displacement cell-binding assays (Dong et al. [2015]) using ^125I–HYK as the radioligand. ^125I–HYK was prepared by labeling HYK with Na^125I using the Iodogen method as previously reported (Liu et al. [2010]). Experiments were performed on high integrin αvβ6-expressing BxPC-3 cells. The best-fit 50% inhibitory concentration (IC50) values were calculated by fitting the data with nonlinear regression using Graph-Pad Prism (GraphPad Software, Inc.).

Molecule: CC(C)C[C@H](NC(=O)[C@H](CC(=O)O)NC(=O)CNC(=O)[C@@H](N)CCCNC(=N)N)C(=O)N[C@@H](C)C(=O)N[C@H](C(=O)N[C@@H](CC(C)C)C(=O)N[C@@H](CCCNC(=N)N)C(=O)N[C@@H](CCC(N)=O)C(=O)N[C@@H](CC(C)C)C(=O)N[C@@H](C)C(=O)N[C@@H](CCC(N)=O)C(=O)N[C@@H](CCC(=O)O)C(=O)N[C@@H](CC(=O)O)C(=O)NCC(=O)N[C@H](C(=O)N[C@H](C(=O)NCC(=O)N[C@H](C(=O)N[C@@H](CCCNC(=N)N)C(=O)N[C@@H](CCCCNC(=O)c1ccc(NN)nc1)C(=O)O)C(C)C)C(C)C)C(C)C)[C@@H](C)O [^99mTc–HYNIC–HK, metal not drawn, reference compound] (H-RGDLATLRQLAQEDGVVGVRK(HYNIC)-OH; N-terminus and C-terminus assumed)
time to complete degradation in vivo after injection [1]: ≤ 30 min
tissue to tissue ratio at 0.5 h ([2]; mouse, 370 kBq): 1.82 ± 0.27
tissue uptake at 0.5 h ([2]; mouse, 370 kBq): 0.58 ± 0.09 %ID/g

Molecule: CC(C)C[C@@H]1NC(=O)[C@H](CC(=O)O)NC(=O)CNC(=O)[C@H](CCCNC(=N)N)NC(=O)[C@@H](N)CSSC[C@@H](C(=O)O)NC(=O)[C@H](CCCCNC(=O)c2ccc(NN)nc2)NC(=O)[C@H](CC(C)C)NC(=O)[C@H]([C@@H](C)O)NC(=O)[C@H](C)NC1=O [^99mTc–HYNIC–cHK, metal not drawn] (H-CRGDLATLK(HYNIC)C-OH; disulfide 1-10)
time remaining stable in the presence of L-cysteine ([3]; L-cysteine 1.0 mg/mL): more than 4 h
time remaining stable in FBS ([3]; fetal bovine serum): more than 4 h
lung uptake in PBS-treated mice (SPECT/CT) ([4]; PBS control, 37 MBq i.v.): no significant uptake
lung uptake in BLM-treated mice (SPECT/CT) ([4]; bleomycin 1.5 units/kg intratracheal, day 21, 37 MBq i.v.): evident accumulation
in vivo stability compared to ^99mTc–HYNIC–HK ([5]; comparison with linear peptide-based radiotracer (Liu et al. [2014b])): much more stable in vivo
degree of metabolism in blood ([5]; 0.5 h postinjection, radio-HPLC): 9.94%
degree of metabolism in blood ([5]; 1 h postinjection, radio-HPLC): 30.09%
chemical integrity in urine ([5]; mouse urine, 0.5 h and 1 h postinjection, radio-HPLC): retained its integrity
binding of ^99mTc–HYNIC–cHK to BxPC-3 cells (cell uptake) ([6]; with excess cold HK peptide (300 μg) blocking): 0.06 ± 0.007 %AD
binding of ^99mTc–HYNIC–cHK to BxPC-3 cells (cell uptake) ([6]; with excess cold cHK peptide (300 μg) blocking): 0.03 ± 0.005 %AD
binding of ^99mTc–HYNIC–cHK to BxPC-3 cells (cell uptake) ([6]; without blocking, 3.7 kBq tracer, γ-counter, twice with triplicate samples): 0.79 ± 0.01 %AD
tissue uptake at 1 h ([2]; BxPC-3 tumors, blocking with HK peptide 500 μg per mouse, n = 4, read-out: tumor uptake with coinjection of cold HK peptide): 0.24 ± 0.04 %ID/g
tissue to tissue ratio at 0.5 h ([2]; mouse, 370 kBq, BxPC-3 tumor-bearing nude mice, 0.5 h after injection, n = 4, read-out: tumor-to-muscle (T/M) ratio): 2.99 ± 0.87
tissue uptake at 1 h ([2]; mouse, 370 kBq, BxPC-3 tumors, mean ± SD, n = 4, read-out: tumor uptake): 0.43 ± 0.09 %ID/g
tissue uptake at 2 h ([2]; mouse, 370 kBq, BxPC-3 tumors, 2 h after injection, mean ± SD, n = 4): 0.33 ± 0.16 %ID/g
tissue uptake at 0.5 h ([2]; mouse, BxPC-3 tumors, 0.5 h after injection, 370 kBq i.v., mean ± SD, n = 4, read-out: tumor uptake): 0.63 ± 0.18 %ID/g
tumor uptake in the HK blocking group (SPECT) (BxPC-3 tumors): almost completely inhibited

Molecule: CC(C)C[C@@H]1NC(=O)[C@H](CC(=O)O)NC(=O)CNC(=O)[C@H](CCCNC(=N)N)NC(=O)[C@@H](N)CSSC[C@@H](C(=O)O)NC(=O)[C@H](CCCCN)NC(=O)[C@H](CC(C)C)NC(=O)[C@H]([C@@H](C)O)NC(=O)[C@H](C)NC1=O [cHK] (H-CRGDLATLKC-OH; disulfide 1-10)
IC50 [7]: 20.3 ± 1.17 nM

IC50 ([7]; displacement cell-binding assay, BxPC-3 cells, nonlinear regression fit, read-out: IC50, inhibition of ^125I–HYK binding to integrin αvβ6 on BxPC-3 cells): 3.55 ± 0.09 nM
Molecule: RGDLATLRQLAQEDGVVGVRK [HK, reference compound]
